The target of assay [1] is T1, human C1q (hC1q), biotinylated (human, UniProt P02745 23-245; P02746 28-253; P02747 29-245, biotinylated).
T1 construct: also called complement component C1q
Nature of the assay: ELISA, coated Ab, biotinylated hC1q. The procedure:
(§1) Ninety-six-well plates (Nunc, Roskilde, Denmark) were coated with serial dilution of the Abs (6.0-0.09 mg/ml) and incubated overnight at 4° C. followed by washing three times with PBS/Tween (pH 7.4). The wells were blocked with 4% skimmed milk (Neogen Europe, Auchincruive, U.K.) for 1 h at room temperature and then washed in PBS/Tween (pH 6.0). Purified hFcRn-GST or pFcRn-GST (1 mg/ml) were diluted in 4% skimmed milk in PBS/Tween (pH 6.0) and preincubated with an HRP-conjugated anti-GST Ab (GE Healthcare U.K., Buckinghamshire, U.K.) diluted 1:5000 and added to the wells. The plates were incubated for 1 h at room temperature and washed with PBS/Tween (pH 6.0). Bound receptor was detected by adding 100 ml of 3,39,5,59-tetramethylbenzidine substrate (Calbiochem-Novabiochem, Nottingham, U.K.). The absorbance was measured at 450 nm using a Sunrise TECAN spectrophotometer. The assay described above was also performed using PBS/Tween (pH 7.4) in all steps. The same setup was used with GST-fused versions of hFcgRI, hFcgRIIa (allotype His131), hFcgRIIb, hFcgRIIIa (allotype Val158), and hFcgRIIIb (1 mg/ml each). In addition, a biotinylated human C1q (hC1 q; 4 mg/ml) preparation was incubated with the Abs and detected using ALP-conjugated streptavidin (GE Healthcare). Absorbance was measured at 405 nm.
In general terms: An ELISA detects its analyte on a solid surface through an enzyme-linked reagent.

The target in assay [2] is T2, human FcgRI ectodomains fused to GST (human; Schistosoma japonicum, UniProt P12314 16-292).
T2 construct: extracellular domain; also called hFcgRI; not shown: Schistosoma japonicum GST
Nature of the assay: ELISA, coated Ab, GST-fused receptor. As for the experimental part:
as §1

For assay [3], the target named is T3, human FcgRIIb ectodomains fused to GST (human; Schistosoma japonicum, UniProt P31994 43-217).
T3 construct: extracellular domain; also called hFcgRIIb; not shown: Schistosoma japonicum GST
T3 sequence (looked up): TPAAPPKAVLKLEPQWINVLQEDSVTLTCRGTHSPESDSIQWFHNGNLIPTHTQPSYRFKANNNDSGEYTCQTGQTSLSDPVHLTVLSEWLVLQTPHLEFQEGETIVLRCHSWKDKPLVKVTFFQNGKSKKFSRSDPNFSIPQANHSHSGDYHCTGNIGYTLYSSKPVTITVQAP
In words: ELISA, coated Ab, GST-fused receptor. As for the experimental part:
as §1

The target of assay [4] is T4, human FcgRIIIa (allotype Val158) ectodomains fused to GST (human; Schistosoma japonicum, UniProt P08637 17-208).
T4 construct: extracellular domain; also called hFcgRIIIa; not shown: Schistosoma japonicum GST
In words: ELISA, coated Ab, GST-fused receptor. The procedure: as §1

For assay [5], the target named is T5, human FcgRIIIb ectodomains fused to GST (human; Schistosoma japonicum, UniProt O75015 17-200).
T5 construct: extracellular domain; also called hFcgRIIIb; not shown: Schistosoma japonicum GST
Nature of the assay: ELISA, coated Ab, GST-fused receptor. As for the experimental part:
as §1

The next assay concerns the target T6, human CD14 (human, UniProt P08571 20-345).
T6 construct: whole, on cells; also called CD14 on human monocytes
T6 sequence (looked up): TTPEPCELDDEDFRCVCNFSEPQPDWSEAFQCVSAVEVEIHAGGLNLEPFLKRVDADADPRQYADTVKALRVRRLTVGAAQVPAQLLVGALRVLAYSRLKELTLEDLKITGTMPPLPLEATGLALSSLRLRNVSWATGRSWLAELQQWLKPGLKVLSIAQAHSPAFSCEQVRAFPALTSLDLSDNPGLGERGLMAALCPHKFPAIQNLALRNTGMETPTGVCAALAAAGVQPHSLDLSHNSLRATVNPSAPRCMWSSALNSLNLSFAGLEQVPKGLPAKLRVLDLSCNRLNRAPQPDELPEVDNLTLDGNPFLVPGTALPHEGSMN
Nature of the assay: flow cytometry, human whole blood, displacement of 18D11 mIgG1 from monocytes.

T1 sequence (P02745 23-245 limits assumed, chain 1 of 3): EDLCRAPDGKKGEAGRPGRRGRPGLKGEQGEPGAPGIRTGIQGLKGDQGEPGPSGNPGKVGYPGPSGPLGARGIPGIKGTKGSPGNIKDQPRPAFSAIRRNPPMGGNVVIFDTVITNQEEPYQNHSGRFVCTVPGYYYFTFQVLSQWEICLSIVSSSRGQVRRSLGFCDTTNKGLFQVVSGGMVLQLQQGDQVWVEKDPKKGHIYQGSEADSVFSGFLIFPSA
T1 sequence (P02746 28-253 limits assumed, chain 2 of 3): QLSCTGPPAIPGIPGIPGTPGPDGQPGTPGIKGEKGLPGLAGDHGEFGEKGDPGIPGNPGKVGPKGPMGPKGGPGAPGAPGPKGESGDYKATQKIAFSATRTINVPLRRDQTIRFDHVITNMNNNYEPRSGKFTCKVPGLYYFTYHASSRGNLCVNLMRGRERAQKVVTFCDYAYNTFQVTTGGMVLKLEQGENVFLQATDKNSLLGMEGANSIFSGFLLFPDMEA
T1 sequence (P02747 29-245 limits assumed, chain 3 of 3): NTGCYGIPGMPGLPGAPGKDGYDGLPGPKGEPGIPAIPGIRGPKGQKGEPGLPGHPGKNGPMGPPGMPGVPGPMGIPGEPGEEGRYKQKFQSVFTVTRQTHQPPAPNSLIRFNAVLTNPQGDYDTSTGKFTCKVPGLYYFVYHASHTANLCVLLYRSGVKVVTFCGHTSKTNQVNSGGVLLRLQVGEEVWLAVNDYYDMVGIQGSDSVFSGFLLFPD
Source text for human CD14: Fresh human or porcine whole blood was drawn into tubes containing the anticoagulants lepirudin (Refludan; Pharmion, Copenhagen, Denmark) or EDTA, respectively. […] Endotoxin-free Dulbecco phosphate buffered saline, PBS (Sigma-Aldrich), was used for diluting the Abs. […] Their binding was detected either by using a secondary PEconjugated anti-mouse IgG or through direct FITC fluorescence. Erythrocytes were lysed using FACS Lysing solution (BD Biosciences, Franklin Lakes, N.J.; human blood) or a solution of 0.16 M ammonium chloride, 10 mM sodium bicarbonate, 0.12 mM EDTA (Tritiplex III) and 0.04% (v/v) paraformaldehyde (porcine blood). In subsequent flow cytometry analyses, human monocyte and porcine granulocyte populations were selected based on the forward scatter-side scatter dot plot, and CD14 binding was recorded as mean or median fluorescence intensity, respectively.

B1: recombinant 18D11 (r18D11), recombinant anti-human CD14 IgG2/4 Ab (antibody)
heavy: EVQLVESGGGLMQPKGSLKLSCAASGFTFKTYALNWVRQAPGTGLEWVARIRSKSNNYTTYYADSVKDRFTISRDDSQNMLYLQMNNLKTEDTAMYYCVRPQSGTSFAYWGQGTLVTVSAASTKGPSVFPLAPCSRSTSESTAALGCLVKDYFPEPVTVSWNSGALTSGVHTFPAVLQSSGLYSLSSVVTVPSSNFGTQTYTCNVDHKPSNTKVDKTVERKCCVECPPCPAPPVAGPSVFLFPPKPKDTLMISRTPEVTCVVVDVSQEDPEVQFNWYVDGVEVHNAKTKPREEQFNSTYRVVSVLTVLHQDWLNGKEYKCKVSNKGLPSSIEKTISKAKGQPREPQVYTLPPSQEEMTKNQVSLTCLVKGFYPSDIAVEWESNGQPENNYKTTPPVLDSDGSFFLYSRLTVDKSRWQEGNVFSCSVMHEALHNHYTQKSLSLSLGK
light: NIVLTQSPASLAVSLGQRATISCRASESVDSYGNSFMHWYQQKPGQPPKLLIYLASNLESGVPARFSGSGSRTDFTLTIDPVEADDVATYYCQQNNGDPYTFGGGTKLEIIRTVAAPSVFIFPPSDEQLKSGTASVVCLLNNFYPREAKVQWKVDNALQSGNSQESVTEQDSKDSTYSLSSTLTLSKADYEKHKVYACEVTHQGLSSPVTKSFNRGEC
notes: Mouse/human chimera: murine variable regions, human IgG2/4 hybrid heavy constant region (CH1 and hinge from IgG2, CH2 and CH3 from IgG4), human kappa; Made in HEK293-EBNA cells; also called recombinant anti-human CD14 Ab
On to B1, for which the binding result in assay [1], in assay [2], in assay [3], in assay [4] and in assay [5] was “no binding” throughout.

B2: recombinant Mil2 (rMil2), recombinant anti-porcine CD14 IgG2/4 Ab (antibody)
heavy: QVRLQQPGAELVRPGASVKLSCKASGYTFTTYWMNWVKQRPEDGLEWIGRIDPYDSETHYNQNFKDKAILTVDKSSSTAYMQLSSLTYEDSAVYYCTRKEGRQWGAYFDYWGQGTTLTVSSASTKGPSVFPLAPCSRSTSESTAALGCLVKDYFPEPVTVSWNSGALTSGVHTFPAVLQSSGLYSLSSVVTVPSSNFGTQTYTCNVDHKPSNTKVDKTVERKCCVECPPCPAPPVAGPSVFLFPPKPKDTLMISRTPEVTCVVVDVSQEDPEVQFNWYVDGVEVHNAKTKPREEQFNSTYRVVSVLTVLHQDWLNGKEYKCKVSNKGLPSSIEKTISKAKGQPREPQVYTLPPSQEEMTKNQVSLTCLVKGFYPSDIAVEWESNGQPENNYKTTPPVLDSDGSFFLYSRLTVDKSRWQEGNVFSCSVMHEALHNHYTQKSLSLSLGK
light: DIVMTQSQKFMSTSVGDRVSVTCKASQYVGTNVAWYQQKPGQSPKALIQSASYRCSGVPDRFTGSGSGTDFTLTISNVQSEDLADYFCQQYNTYVTFGGGTKLELKRTVAAPSVFIFPPSDEQLKSGTASVVCLLNNFYPREAKVQWKVDNALQSGNSQESVTEQDSKDSTYSLSSTLTLSKADYEKHKVYACEVTHQGLSSPVTKSFNRGEC
notes: Mouse/human chimera with human IgG2/4 hybrid heavy constant region and human kappa
On to B2, for which the binding result in assay [1], in assay [2], in assay [3], in assay [4] and in assay [5] was “no binding” in each case.

B3: 18D11 IgG1 F(ab')2 (Diatec) (other)
VH: EVQLVESGGGLMQPKGSLKLSCAASGFTFKTYALNWVRQAPGTGLEWVARIRSKSNNYTTYYADSVKDRFTISRDDSQNMLYLQMNNLKTEDTAMYYCVRPQSGTSFAYWGQGTLVTVSAA
VL: NIVLTQSPASLAVSLGQRATISCRASESVDSYGNSFMHWYQQKPGQPPKLLIYLASNLESGVPARFSGSGSRTDFTLTIDPVEADDVATYYCQQNNGDPYTFGGGTKLEIIR
notes: F(ab')2 fragment of the mouse IgG1 clone 18D11, bought; also called 18D11 F(ab)92; F(ab9)2 18D11
On to B3, for which the binding result with human CD14 is recorded as “binds”.

These data come from patent US20170107294A1 (NORDLANDSSYKEHUSET HF, published 2017).
